Results from US20250163146A1 (H LEE MOFFITT CANCER CENTER AND RESEARCH INSTITUTE, published 2025).

Key:
[1] = target: T1, biotinylated murine DLL4 protein, truncation containing the C2, DSL, and EGF1-3 domains (DLL4 (N-EGF3)) (mouse, UniProt Q9JI71 27-324, limits assumed, biotinylated (site not stated)); test: yeast display, biotinylated mDLL4 + SA-647, flow cytometry
T1 construct: domain: C2, DSL, and EGF1-3 domains (N-EGF3); also called mDLL4; mouse DLL4
Protocol: (§1) 162. To isolate binding molecules that interrupted the interaction of DLL4 and Notch1, we performed several rounds of selection using decreasing concentrations of biotinylated murine DLL4 protein. The mDLL4 protein was a truncation that contained the C2, DSL, and EGF1-3 domains (DLL4 (N-EGF3)). To perform a selection, the library was stained with biotinylated mDLL4, washed, incubated with streptavidin-647, washed, and then binders isolated selected using either (a) magnetic beads coated with an anti-647 antibody or (b) FACS. The mDLL4-binding yeast were then plated so that individual colonies could be picked and cultured to isolate individual clones. The clones were then each stained with mDLL4 and SA-647 and analyzed by flow cytometry to confirm that they bound to mDLL4. (FIG. 1).

[2] = target: T2, human DLL4 (N-EGF3) (human, UniProt Q9NR61 27-323, limits assumed, biotinylated (site not stated); used unlabeled in the complex with biotinylated hNotch1 (6-13)); test: yeast display, biotinylated human DLL4 (N-EGF3) + SA-647, flow cytometry
T2 construct: domain: N-EGF3; also called hDLL4; hDLL4 (N-3)
Protocol: (§2) The eight anti-DLL4 nanobody clones were then tested for cross-reactivity between human and mouse DLL4. Yeast cells expressing each nanobody were stained with biotinylated human DLL4 (N-EGF3), washed, stained with SA-647, and then analyzed by flow cytometry.

[3] = target: T2, human DLL4 (N-EGF3); test: yeast display, biotinylated human DLL4 (N-EGF3), SA-647, flow cytometry
Protocol: as §2

[4] = target: T1, biotinylated murine DLL4 protein, …; test: yeast display, flow cytometry (FIG. 1)
Protocol: as §1

[5] = target: T3, human DLL4 (N-terminus to EGF5) (human, UniProt Q9NR61 27-401, limits assumed, biotinylated in the flow cytometry titration (site not stated); not stated for the plate-coated protein); test: nanobody incubated with increasing concentrations of biotinylated human DLL4 (N-terminus to EGF5), streptavidin Alexa Fluor 647, flow cytometry
T3 construct: domain: N-terminus to EGF5 (C2, DSL, and EGF1-5 domains); also called recombinant human DLL4 protein containing the C2, DSL, and EGF1-5 domains
Protocol: 166. To determine the ability of the C4 and C5 nanobodies to bind DLL4, C4 and C5 nanobodies were incubated with increasing concentrations of biotinylated human DLL4 (N-terminus to EGF5) and binding was detected using streptavidin labeled with Alexa Fluor 647. Fluorescence was then monitored by flow cytometry and EC50 values were calculated for each nanobody (FIG. 5).

T2 sequence (Q9NR61 27-323 limits assumed): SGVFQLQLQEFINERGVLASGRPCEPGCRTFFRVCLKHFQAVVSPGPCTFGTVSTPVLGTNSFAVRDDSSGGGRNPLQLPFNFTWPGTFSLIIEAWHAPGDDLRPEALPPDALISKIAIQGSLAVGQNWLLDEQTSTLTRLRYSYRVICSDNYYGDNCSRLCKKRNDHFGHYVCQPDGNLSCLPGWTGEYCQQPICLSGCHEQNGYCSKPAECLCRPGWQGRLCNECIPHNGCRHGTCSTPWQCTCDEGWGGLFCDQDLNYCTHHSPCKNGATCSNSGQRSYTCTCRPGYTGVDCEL
T1 sequence (Q9JI71 27-324 limits assumed): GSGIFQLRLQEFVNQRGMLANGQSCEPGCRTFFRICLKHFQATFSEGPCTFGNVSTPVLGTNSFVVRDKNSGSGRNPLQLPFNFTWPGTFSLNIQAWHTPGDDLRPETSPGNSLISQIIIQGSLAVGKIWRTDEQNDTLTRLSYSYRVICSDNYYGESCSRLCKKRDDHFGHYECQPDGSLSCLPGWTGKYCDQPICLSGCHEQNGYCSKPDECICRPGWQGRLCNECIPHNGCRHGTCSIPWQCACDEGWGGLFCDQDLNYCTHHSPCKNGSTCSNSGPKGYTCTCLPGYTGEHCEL
T3 sequence (Q9NR61 27-401 limits assumed): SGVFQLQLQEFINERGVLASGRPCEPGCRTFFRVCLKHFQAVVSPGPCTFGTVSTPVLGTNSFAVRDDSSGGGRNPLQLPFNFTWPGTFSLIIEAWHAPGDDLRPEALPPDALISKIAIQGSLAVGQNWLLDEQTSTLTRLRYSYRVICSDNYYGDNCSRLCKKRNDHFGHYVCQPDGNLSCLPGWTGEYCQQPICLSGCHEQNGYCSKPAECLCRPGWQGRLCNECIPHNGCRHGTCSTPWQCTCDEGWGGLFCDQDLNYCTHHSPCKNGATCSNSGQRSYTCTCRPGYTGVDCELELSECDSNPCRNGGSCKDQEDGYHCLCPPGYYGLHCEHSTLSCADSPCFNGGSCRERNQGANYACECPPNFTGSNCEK

| Binder | binding result [1] | binding result [2] | binding result [3] | binding result [4] | binding result [5] |
| --- | --- | --- | --- | --- | --- |
| nanobody clone B4 (VHH) VHH: QVQLQESGGGLVQAGGSLRLSCAASGNISVWIPMGWYRQAPGKEREFVASIGEGSTTYYADSVKGRFTISRDNAKNTVYLQMNSLKPEDTAVYYCAVPYYGHSDYDYWGQGTQVTVSS | – | – | no binding | binds | – |
| nanobody clone A9 (VHH) VHH: QVQLQESGGGLVQAGGSLRLSCAASGTISQDSGMGWYRQAPGKEREFVAGITAGSITYYADSVKGRFTISRDNAKNTVYLQMNSLKPEDTAVYYCAASYVSVQAHTYWGQGTQVTVSS | – | – | no binding | binds | – |
| nanobody clone B1 (VHH) VHH: QVQLQESGGGLVQAGGSLRLSCAASGTIFYSSDMGWYRQAPGKEREFVAGINRGSTTYYADSVKGRFTISRDNAKNTVYLQMNSLKPEDTAVYYCAVVSDVLTRLFYWGQGTQVTVSS | – | binds | – | binds | – |
| nanobody clone C5 (VHH) VHH: QVQLQESGGGLVQAGGSLRLSCAASGNISTGTAMGWYRQAPGKEREFVAGIAYGATTYYADSVKGRFTISRDNAKNTVYLQMNSLKPEDTAVYYCAVEVSQSTPGGRYSVAYLIYWGQGTQVTVSS | – | binds | – | binds | binds |

Further lines, results first:

| binding result [1] | binding result [2] | binding result [3] | binding result [4] | binding result [5] | Binder |
| --- | --- | --- | --- | --- | --- |
| binds | binds | – | – | – | nanobody clone A7 (VHH) VHH: QVQLQESGGGLVQAGGSLRLSCAASGNIFYTYSMGWYRQAPGKEREFVAAISAGTITYYADSVKGRFTISRDNAKNTVYLQMNSLKPEDTAVYYCAVFAPRDVIHYYWGQGTQVTVSS |
| – | – | no binding | binds | – | nanobody clone A8 (VHH) VHH: QVQLQESGGGLVQAGGSLRLSCAASGTIFEERVMGWYRQAPGKEREFVAGIASGAITYYADSVKGRFTISRDNAKNTVYLQMNSLKPEDTAVYYCAAQGYSFKTKPDYSAYVLVYWGQGTQVTVSS |
| – | – | no binding | binds | – | nanobody clone C2 (VHH) VHH: QVQLQESGGGLVQAGGSLRLSCAASGSISVVYGMGWYRQAPGKEREFVAGISYGGSTYYADSVKGRFTISRDNAKNTVYLQMNSLKPEDTAVYYCAVDASYWDTLVYWGQGTQVTVSS |
| – | binds | – | binds | binds | nanobody clone C4 (VHH) VHH: QVQLQESGGGLVQAGGSLRLSCAASGSISGDVEMGWYRQAPGKEREFVAGINDGGNTYYADSVKGRFTISRDNAKNTVYLQMNSLKPEDTAVYYCAVSTTYPSYNESQYADWLAYWGQGTQVTVSS |
